Results on one molecule are retold here after patent US9206457B2, “Utilization of pharmacological chaperones to improve manufacturing and purification of biologics” (Amicus Therapeutics, Inc., priority 2009, dated 2015).

Positions count from the first letter of the chain named.

Series [1] addresses T1, acid β-glucosidase (GCase; Cerezyme®) (Homo sapiens, UniProt P04062, R534H).
T1 construct: purchased Genzyme Corp
T1 sequence (P04062 40-536 R534H): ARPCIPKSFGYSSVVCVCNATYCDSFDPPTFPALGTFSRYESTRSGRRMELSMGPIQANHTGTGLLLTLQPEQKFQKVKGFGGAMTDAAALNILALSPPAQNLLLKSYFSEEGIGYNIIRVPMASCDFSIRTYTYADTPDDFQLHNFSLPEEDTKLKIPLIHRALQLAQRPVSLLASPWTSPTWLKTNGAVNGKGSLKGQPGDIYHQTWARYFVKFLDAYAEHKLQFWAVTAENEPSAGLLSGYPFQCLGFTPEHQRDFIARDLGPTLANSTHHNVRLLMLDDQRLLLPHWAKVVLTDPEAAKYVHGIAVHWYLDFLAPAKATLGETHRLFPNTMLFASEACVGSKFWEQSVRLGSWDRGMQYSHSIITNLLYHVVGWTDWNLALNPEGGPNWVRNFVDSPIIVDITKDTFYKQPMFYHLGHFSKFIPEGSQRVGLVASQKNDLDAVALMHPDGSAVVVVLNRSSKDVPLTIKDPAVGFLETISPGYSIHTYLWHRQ
Description: SYPRO Orange thermal stability assay (heat denaturation) of GCase. It counts as binding. Particulars: pH 5.2 versus pH 7.4, no chaperone. The procedure:
FIG. 4 depicts the results of a thermal stability assay that utilizes heat to induce protein denaturation, which is monitored using a SYPRO Orange dye that fluoresces upon binding to hydrophobic amino acids (which are not exposed in a folded protein). Isofagomine increases acid β-glucosidase thermostability as evident by increases in melting temperature in a dose-dependent manner. The experiment was conducted at pH 7.4.
FIG. 8 depicts the stability of recombinant human GCase (Cerazyme®, Genzyme Corp.) at neutral pH (7.4) or acidic pH (5.2) in the presence or absence of 10 μM of IFG as determined in a thermal stability assay. The thermal stability assay utilizes heat to induce protein denaturation, which is monitored using a SYPRO Orange dye that fluoresces upon binding to hydrophobic amino acids (which are not exposed in a folded protein).
A thermal stability experiment as generally described in Example 1 was performed on three compositions of GCase (Cerezyme®):
A thermal stability experiment as generally described in Examples 1 and 4 was performed on three compositions of GCase (Cerezyme®):
Protein denaturation was monitored using SYPRO Orange dye which fluoresces when bound to exposed hydrophobic amino acids.

Series [2] deals with T2, recombinant human GCase (Cerezyme®) (Homo sapiens, UniProt P04062, R534H).
T2 construct: purchased Genzyme Corp
T2 sequence (P04062 40-536 R534H): T1 sequence (P04062 40-536 R534H)
The series can be described thus: GCase activity in human plasma at 37° C. (4-MUG). It counts as in vitro ADME. Particulars: human plasma, 0.5 μM GCase, no chaperone. The procedure: FIG. 10 depicts the effects of IFG on recombinant human GCase (GCase; Cerezyme®, Genzyme Corp.) activity in human plasma at 37° C. GCase activity was evaluated to assess the ability of an ASSC to prolong the activity of GCase in human plasma over time. Cerezyme (0.5 μM) was incubated in human plasma with increasing concentrations of IFG (3 μM, 30 μM, or 100 μM) at 37° C. over 4 hours. Samples were assayed for GCase enzyme activity using 4-MU-β-glucose at 0.25, 0.5, 1, 2 and 4 hours and the residual GCase activity was expressed as % of initial activity.
The activity of GCase (0.5 μM; Cerazyme®) at 37° C. in human plasma was assessed for increasing concentrations of IFG (3 μM, 30 μM, and 100 μM) as a function time using the substrate 4-MUG.

B1: GCase: recombinant human GCase (Cerezyme®, Genzyme Corp.) (protein, UniProt P04062 40-536, looked up)
Lysosomal acid …: T1 sequence (P04062 40-536 R534H) with H495R
modifications: imiglucerase
Turning to B1, the “Stability of GCase at acidic versus neutral pH (thermal stability assay)” value in series [1] is reported as “more stable at acidic (lysosomal) pH than at neutral pH”. Also, in series [2], the “Time by which GCase is completely inactive” value was at most 1 h and the “Time by which most GCase is inactivated” value is at most 30 min.
